# Laboratory results as given in the supplement of paper PMC10126150.
# ± gives the standard deviation of the averaged measurements.
# System: ATP
# Assay: switch fluorescence ratio, 500 uM ATP over buffer (Cy3 cluster intensity, sum of 5 cycles each) (fold (ratio)); higher = stronger signal-on switching upon ATP binding; sequences stand for … in TCGTCGGCAGCGTCAGATGTGTATAAGAGACAGTTTTTTTTTTTTTTTTTTTTTTTTT…TC
# Conditions: aptamer strand: ATP DNA aptamer (quencher-CACCTGGGGGAGTATTGCGGAGGAAGG + anchor), 100 nM annealed; ATP concentration: 500 uM
# Procedure, shortened: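 The fluorescence ratio divides summed target-cycle Cy3 intensity by summed buffer-cycle Cy3 intensity for each cluster and is averaged per switch-domain sequence. Cy3-labelled switching-strand clusters on a modified Illumina MiSeq flow-cell were annealed to 100 nM quencher-labelled ATP aptamer, then imaged in selection buffer and again after 15 min with 500 uM ATP at 22 °C. Five such cycles were run, with NaOH stripping and re-annealing between them, and clusters outside 100-1000 RFU were excluded.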
# 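Note: ATP exposure 15 min at 22 °C before imaging.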
row,Sequence,switch fluorescence ratio
1,TTTCAAATCT,1.026 ± 0.0019
2,TTAGTTATTT,0.999 ± 0.035
3,TTTTGTCTTT,1 ± 0.032
4,AGTTTGGCAC,1.05 ± 0.057
5,CGATGTAGTC,1.05 ± 0.022
6,AATCCAGGGC,1.05 ± 0.056
7,ATTAAAAGTG,0.986 ± 0.013
8,TTGTTGGCGA,1.04 ± 0.023
9,CGTGTAAATA,0.995 ± 0.015
10,TGTGGCAGTT,1.02 ± 0.027
11,TCGGGGGCTT,0.996 ± 0.015
12,AGGCGTGTCA,1.004 ± 0.0083
13,TTATTTTTAA,0.9809 ± 0.0038
14,TTGGGTGGC,0.999 ± 0.011
15,ATGGGGGTTA,0.987 ± 0.04
16,TCTAGTTTAT,0.987 ± 0.033
17,AACTGAAGTG,0.984 ± 0.023
18,GGGGCCGGCG,1.08 ± 0.11
19,TTTTTAGAG,0.999 ± 0.021
20,TATTGAGATA,1.01 ± 0.04
21,TTGTAAGTAG,0.979 ± 0.012
22,TGAGGCAGAG,1.06 ± 0.015
23,CGGTGCACGG,1.05 ± 0.027

row,Sequence,switch fluorescence ratio
1,TTTTTAATGC,0.979 ± 0.034
2,GGGGTCGGTG,0.969 ± 0.03
3,AAGCCGTGCG,1.02 ± 0.014
4,GGGGTTGAAT,1.01 ± 0.046
5,GCGAGCAATG,1.03 ± 0.027
6,AAGTTCGGGG,1.05 ± 0.088
7,GTGGGGAATC,1.02 ± 0.082
8,GCGAGAATAG,1 ± 0.014
9,TTTCAAGTAC,1.49 ± 0.21
10,TTGCGCCCCC,1.104 ± 0.011
11,AGTCAGTTGG,0.967 ± 0.041
12,TATAAAAGGA,1 ± 0.019
13,TCGAGGGTAG,1.02 ± 0.018
14,ATGAAAGTCT,0.976 ± 0.042
15,TGTCGGAAAG,0.985 ± 0.026
16,GTGTGGGAAG,1.01 ± 0.028
17,TTCAGCTGTT,1.01 ± 0.011
18,AAGGGTTGGG,1.06 ± 0.058
19,ATAATCGGTG,0.981 ± 0.041
20,TATTGTAACC,1.03 ± 0.016
21,AAGGGAATAG,1.02 ± 0.014
22,AGTGTGGGTT,0.979 ± 0.0047
23,GTGGTTGGAA,0.963 ± 0.022

row,Sequence,switch fluorescence ratio
1,AGGGGAGGGG,1.02 ± 0.042
2,ATAGTTGTTT,1 ± 0.019
3,TTGCTGTCGG,0.985 ± 0.038
4,TATATTTCTA,0.999 ± 0.035
5,TCGCCGAAAT,1.7 ± 0.35
6,TTGGTTAAGA,0.999 ± 0.04
7,TTAATATTGT,1.029 ± 0.0062
8,AAAAGTTTTT,0.997 ± 0.025
9,GCAGGTTCGG,1.01 ± 0.037
10,GGTTGTTTGT,0.995 ± 0.015
11,CGCGTTGAAA,1.038 ± 0.0035
12,TACAGGGATC,0.993 ± 0.027
13,TTGTTCGGGG,1.03 ± 0.056
14,TGTGTTTCGT,1.007 ± 0.0084
15,TTCTGTTGAC,1.7 ± 0.95
16,ATTGGACATC,1.11 ± 0.11
17,GAAGTCGTGC,0.999 ± 0.023
18,TCAACCTACG,1.36 ± 0.17
19,AAAGTCGCGT,1 ± 0.032
20,TAGGCTTTTT,0.9925 ± 0.0075
21,GATGTACAGA,1.13 ± 0.019
22,TTTTACGCAG,1.03 ± 0.044
23,TGGGGGTTAA,0.981 ± 0.025

row,Sequence,switch fluorescence ratio
1,TTGAAGAGG,1.02 ± 0.035
2,AAAACATTCG,1.16 ± 0.12
3,ACATCTCGTT,0.96 ± 0.041
4,GCTTGCTTTT,0.989 ± 0.022
5,AATTTTAATT,1 ± 0.027
6,TCAGGTGTGA,1.27 ± 0.025
7,CAGCCAAATA,1.1 ± 0.029
8,AATCGTCTTT,0.961 ± 0.024
9,TTCAGGTGCC,1.46 ± 0.04
10,TTTAATTGTT,0.978 ± 0.034
11,AATGTCCGTC,1.04 ± 0.046
12,AAGGGTGTGT,0.961 ± 0.032
13,ATACGCTGTT,0.9875 ± 0.0082
14,AAAAGGTGTA,0.99 ± 0.0095
15,ACCCGCCTTT,1.086 ± 0.0021
16,TATTGTAATG,1.04 ± 0.0081
17,CGCAGTTGGA,1.03 ± 0.039
18,GAGAAATGCG,1.03 ± 0.012
19,TTTGGTGATT,0.982 ± 0.025
20,TTTGAGGTTT,1.01 ± 0.011
21,TCTAAGTTGT,1.002 ± 0.0058
22,CATGCCTTGT,1.009 ± 0.0059
23,GGGGGCCCCG,1 ± 0.013

row,Sequence,switch fluorescence ratio
1,AAGTTGTGAA,1.01 ± 0.017
2,ATCATTAGTA,0.999 ± 0.021
3,AACGTTAGCG,1.002 ± 0.0045
4,GCTGGGGGGT,1 ± 0.044
5,AAAGCTAGGA,0.979 ± 0.036
6,AATCGGGTCT,0.999 ± 0.015
7,TAATGTGGGA,0.96651 ± 0.00012
8,ACAGTACACA,1.3 ± 0.061
9,TACTATTTTT,1 ± 0.018
10,ATGGAAGGTT,0.991 ± 0.033
11,TGGTTAAAAT,1 ± 0.025
12,TTTGGGCCGC,1.06 ± 0.05
13,CGTTGCTGAT,0.972 ± 0.035
14,ACATTGGCGG,0.993 ± 0.066
15,AAGGGGATAT,1.03 ± 0.044
16,AGAAACAAAC,1.041 ± 0.0083
17,ACAGTCTGAC,1.0082 ± 0.00053
18,ATTCATTGTC,1.09 ± 0.11
19,TAAAGAGGTG,1.11 ± 0.053
20,AAGAAGGAGC,0.974 ± 0.039
21,GCATTATCTA,1.01 ± 0.07
22,TTACTTTTAC,1.13 ± 0.14
23,TGGGAAAGCC,0.981 ± 0.012

row,Sequence,switch fluorescence ratio
1,TATCGCCCTC,1.07 ± 0.011
2,GTTAATTACA,1.026 ± 0.0096
3,TGCTTCATGT,0.985 ± 0.027
4,TGGTAAGGGG,1.12 ± 0.25
5,TTTTGGGAT,1.04 ± 0.15
6,TAGGTAGGGA,0.993 ± 0.018
7,TACGGAAAGT,1.02 ± 0.015
8,ATTTGATTCT,0.984 ± 0.023
9,CGGGCGATGG,1.08 ± 0.017
10,CCTGGAAGCG,1.08 ± 0.045
11,CCATGTATAA,1.02 ± 0.016
12,GATAAGGAAG,1.02 ± 0.011
13,TATTTTGGAG,0.985 ± 0.035
14,CGGGTAGAAG,0.971 ± 0.046
15,CAATGGTTCT,0.993 ± 0.036
16,TCTTAATGTA,0.985 ± 0.015
17,CCTAATCGGT,1.006 ± 0.0095
18,GGGTTCATTG,0.974 ± 0.033
19,GTTGGGGGGT,0.989 ± 0.02
20,TCTTTTGGTA,0.9895 ± 0.0052
21,ATTTTATACA,0.996 ± 0.03
22,AAAAGGGTAG,1.01 ± 0.018
23,TCACAGTTTT,0.983 ± 0.02

row,Sequence,switch fluorescence ratio
1,CATGAGTTGT,1 ± 0.025
2,AGGGGAGTTC,1.04 ± 0.035
3,TCGGGGGACT,0.9827 ± 0.0063
4,CCGTTAGTAA,3.13 ± 0.46
5,TAAAAGGCGG,1.03 ± 0.029
6,GATTAAAGTT,1.02 ± 0.033
7,AAACTTAATG,1.05 ± 0.061
8,AGGACGGGGA,0.99 ± 0.019
9,GGTCGAGTGG,0.988 ± 0.0032
10,ACGATTTTTA,1 ± 0.013
11,CCAAGGATAA,1.047 ± 7.2e-05
12,AACCGTTGAC,1.21 ± 0.02
13,TGGTACACGT,0.989 ± 0.014
14,TTGTGTGTTT,0.989 ± 0.024
15,AAGTCAATGT,1.015 ± 0.0027
16,CTTCCTGCCA,2.69 ± 0.36
17,TCTGGTAGTG,1.03 ± 0.035
18,TTTTTAGTAA,0.979 ± 0.028
19,ATTGGTGTAA,1.01 ± 0.015
